Results reported in PMC6818471.

B1: GLUT9a: N90Q (protein)
parent chain: MARKQNRNSKELGLVPLTDDTSHAGPPGPGRALLECDHLRSGVPGGRRRKDWSCSLLVASLAGAFGSSFLYGYNLSVVNAPTPYIKAFYNESWERRHGRPIDPDTLTLLWSVTVSIFAIGGLVGTLIVKMIGKVLGRKHTLLANNGFAISAALLMACSLQAGAFEMLIVGRFIMGIDGGVALSVLPMYLSEISPKEIRGSLGQVTAIFICIGVFTGQLLGLPELLGKESTWPYLFGVIVVPAVVQLLSLPFLPDSPRYLLLEKHNEARAVKAFQTFLGKADVSQEVEEVLAESRVQRSIRLVSVLELLRAPYVRWQVVTVIVTMACYQLCGLNAIWFYTNSIFGKAGIPPAKIPYVTLSTGGIETLAAVFSGLVIEHLGRRPLLIGGFGLMGLFFGTLTITLTLQDHAPWVPYLSIVGILAIIASFCSGPGGIPFILTGEFFQQSQRPAAFIIAGTVNWLSNFAVGLLFPFIQKSLDTYCFLVFATICITGAIYLYFVLPETKNRTYAEISQAFSKRNKAYPPEEKIDSAVTDGKINGRP
B2: GLUT9b: N61Q (protein)
parent chain: MKLSKKDRGEDEESDSAKKKLDWSCSLLVASLAGAFGSSFLYGYNLSVVNAPTPYIKAFYNESWERRHGRPIDPDTLTLLWSVTVSIFAIGGLVGTLIVKMIGKVLGRKHTLLANNGFAISAALLMACSLQAGAFEMLIVGRFIMGIDGGVALSVLPMYLSEISPKEIRGSLGQVTAIFICIGVFTGQLLGLPELLGKESTWPYLFGVIVVPAVVQLLSLPFLPDSPRYLLLEKHNEARAVKAFQTFLGKADVSQEVEEVLAESRVQRSIRLVSVLELLRAPYVRWQVVTVIVTMACYQLCGLNAIWFYTNSIFGKAGIPPAKIPYVTLSTGGIETLAAVFSGLVIEHLGRRPLLIGGFGLMGLFFGTLTITLTLQDHAPWVPYLSIVGILAIIASFCSGPGGIPFILTGEFFQQSQRPAAFIIAGTVNWLSNFAVGLLFPFIQKSLDTYCFLVFATICITGAIYLYFVLPETKNRTYAEISQAFSKRNKAYPPEEKIDSAVTDGKINGRP

Assays:
[1] = [14C]-urate uptake, oocytes co-expressing ITM2B; details: glycan lost
[2] = [14C]-urate uptake, oocytes co-expressing TMEM85; details: glycan lost
[3] = [14C]-urate uptake, polarized or depolarized oocytes; details: glycan lost
[4] = confocal immunofluorescence, HEK 293T; details: glycan lost; control: wild type GLUT9b

Protein | other: inhibition of urate uptake by ITM2B, other: percent inhibition of uptake ([1]; control: wild type GLUT9a) | other: inhibition of urate uptake by TMEM85 ([2]; control: wild type GLUT9a) | other: transport activity ([3]; control: wild type GLUT9a) | localisation_or_trafficking [4] | other: inhibition of urate uptake by ITM2B, other: percent inhibition of uptake ([1]; control: wild type GLUT9b) | other: inhibition of urate uptake by TMEM85 ([2]; control: wild type GLUT9b) | other: transport activity ([3]; control: wild type GLUT9b)
B1 | no change, ∼65–70 vs 65–70 | no change | no change |  |  |  | 
B2 |  |  |  | no change | no change, ∼65–70 vs 65–70 | no change | no change
